Here are results for 1 substance from patent US11161908.

This assay concerns the target human BAFF-R-GFP fusion protein expressed on the surface of mouse fibroblast (L) cells, clone D2C (human) (UniProt Q96RJ3). The assay can be described thus: flow cytometry, recombinant BAFF at 0.5 ug/10^6 D2C L cells, detected with anti-BAFF-PE, no antibody; unstained cells: 0.0217.

On to “recombinant BAFF ligand (from UniProt Q9Y275 134-285)”, for which the percent of cells in the BAFF-PE gate was 59.6%.
